These results are taken from US6818657B1, “Bioprecursors of a retinoic derivative and pharmaceutical and/or cosmetic compositions” (Pierre Fabre Dermo-Cosmetique, priority 1999, dated 2004).

Substrate in the data set: CC1=C(/C=C/C(C)=C/C=C/C(C)=C/C(=O)Oc2ccc(O[C@@H]3OC(CO)[C@@H](O)C(O)C3O)cc2)C(C)(C)CCC1
Description: Michaelis constants (Km) and Vm of recombinant β-glucocerebrosidase for pseudosubstrates. It counts as biochemical. Particulars: other: phthalate buffer pH 5.6 (0.025 M), taurocholate 5 mM, purified β-glucocerebrosidase, 30 minutes incubation, HPLC assay. As for the experimental part:
After confirming that β-glucocerebrosidase is expressed in the keratinocytes, we produced a recombinant enzyme in the baculovirus system. A histidine tail was added to the COOH end of the protein to allow it to be purified by affinity column chromatography.
Thus, we were able to determine the Michaelis constants (Km) and the Vm values of the recombinant β-glucocerebrosidase in particular for the retinoic acid-arbutin glucoconjugate. The kinetics measurements are carried out in a phthalate buffer at pH 5.6 (0.025 M) containing taurocholate (5 mM), purified β-glucocerebrosidase and the test conjugate at various concentrations. The incubation lasts 30 minutes and the amount of hydroquinone-retinoic acid conjugate released is assayed by HPLC. The table below gives the results obtained. […] As regards their rates of hydrolysis, these are lower and thus allow effects to be obtained over time.

B1: recombinant β-glucocerebrosidase (Homo sapiens) (protein)
chain: ARPCIPKSFGYSSVVCVCNATYCDSFDPPTFPALGTFSRYESTRSGRRMELSMGPIQANHTGTGLLLTLQPEQKFQKVKGFGGAMTDAAALNILALSPPAQNLLLKSYFSEEGIGYNIIRVPMASCDFSIRTYTYADTPDDFQLHNFSLPEEDTKLKIPLIHRALQLAQRPVSLLASPWTSPTWLKTNGAVNGKGSLKGQPGDIYHQTWARYFVKFLDAYAEHKLQFWAVTAENEPSAGLLSGYPFQCLGFTPEHQRDFIARDLGPTLANSTHHNVRLLMLDDQRLLLPHWAKVVLTDPEAAKYVHGIAVHWYLDFLAPAKATLGETHRLFPNTMLFASEACVGSKFWEQSVRLGSWDRGMQYSHSIITNLLYHVVGWTDWNLALNPEGGPNWVRNFVDSPIIVDITKDTFYKQPMFYHLGHFSKFIPEGSQRVGLVASQKNDLDAVALMHPDGSAVVVVLNRSSKDVPLTIKDPAVGFLETISPGYSIHTYLWRRQ
notes: histidine tail (His tag) (C); made in house
In general, Km refers to the concentration of substrate that gives half-maximal velocity. Usually Vmax stands for the rate approached at saturating substrate. Consider B1, for which the Km was determined as 5 ± 1.2 µM and the Vmax is given as 235 ± 19 nmol/h/mg.
